Laboratory results taken from paper PMC5066248.

Target: His6-GroEL
Assay: cryo-EM structure; His6-GroEL captured from clarified E. coli lysate on Ni2+-activated BSA-PABA-GO-NTA coated lacey carbon 400 mesh grids; single particle analysis of 5363 particles in EMAN 2.1 with imposed D7 symmetry; 8.1 Å (gold standard, 0.143 criteria)

Chain of His6-GroEL (A1AJ51 2-548): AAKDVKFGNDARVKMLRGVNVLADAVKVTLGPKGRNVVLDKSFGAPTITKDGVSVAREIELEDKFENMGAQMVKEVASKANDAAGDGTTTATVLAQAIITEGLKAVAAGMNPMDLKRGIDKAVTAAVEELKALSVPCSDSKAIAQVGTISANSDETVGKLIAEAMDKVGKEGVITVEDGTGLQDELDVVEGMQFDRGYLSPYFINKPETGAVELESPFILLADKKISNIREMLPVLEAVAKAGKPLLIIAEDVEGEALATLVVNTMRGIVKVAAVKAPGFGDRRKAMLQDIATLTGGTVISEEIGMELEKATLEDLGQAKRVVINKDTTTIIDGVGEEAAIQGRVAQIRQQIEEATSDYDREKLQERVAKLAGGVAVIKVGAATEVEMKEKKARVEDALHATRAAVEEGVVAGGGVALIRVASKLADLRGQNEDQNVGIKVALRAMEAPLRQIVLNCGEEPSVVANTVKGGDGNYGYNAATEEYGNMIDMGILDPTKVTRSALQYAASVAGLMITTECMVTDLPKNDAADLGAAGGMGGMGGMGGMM

Substance: His6-GroEL (natural protein)
- stoichiometry N: 14
